Experimental data published in patent US20230313215A1 (published 2023).

Key:
[1] = biological target: T1, 3x syn. clamp (three-PDZ clamp, nc=3); assay: cell-based or functional assay
T1 chain: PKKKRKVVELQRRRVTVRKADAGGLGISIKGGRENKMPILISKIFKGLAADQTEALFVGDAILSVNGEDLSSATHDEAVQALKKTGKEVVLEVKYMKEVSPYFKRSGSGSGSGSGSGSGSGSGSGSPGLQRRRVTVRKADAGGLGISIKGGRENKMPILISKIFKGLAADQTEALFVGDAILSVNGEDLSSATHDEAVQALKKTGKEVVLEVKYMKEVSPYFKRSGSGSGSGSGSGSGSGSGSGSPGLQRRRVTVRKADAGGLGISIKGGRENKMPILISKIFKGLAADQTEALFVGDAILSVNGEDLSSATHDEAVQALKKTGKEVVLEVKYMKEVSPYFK

[2] = biological target: T2, 2x syn. clamp (two-PDZ clamp, nc=2); assay: cell-based or functional assay
T2 chain: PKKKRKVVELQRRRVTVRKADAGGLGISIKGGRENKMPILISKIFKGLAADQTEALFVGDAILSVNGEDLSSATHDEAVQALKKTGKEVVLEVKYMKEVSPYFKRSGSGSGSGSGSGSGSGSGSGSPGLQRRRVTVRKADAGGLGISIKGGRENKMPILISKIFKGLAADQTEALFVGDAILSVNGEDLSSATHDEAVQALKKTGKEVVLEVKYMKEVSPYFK

B1: MBP-43-8(low)-syn. lig.(S5), ligand VKESLV (other, not shown: large carriers)
chain: GEAPFQCRICMANFSRQDRLDRHTRTHTGEKPFQCRICMANFSQKEHLAGHLRTHTGEKPFQCRICMANFSRRDNLNRHLKTHLRGSGSGVKESLV
In the case of B1, the “EC50 of synTF titration on nc=3 DBM oligo probe (fluorescence anisotropy) in the presence of three-PDZ clamp” value [1] is reported as 5.1 nM and the “EC50 of synTF titration on nc=2 DBM oligo probe (fluorescence anisotropy) in the presence of clamp” value [2] is reported as 18 nM.
